Laboratory results: patent US20240317834A1, “COMPOSITIONS AND METHODS FOR NEUROLOGICAL DISEASES” (CODA BIOTHERAPEUTICS, INC., priority 2020, published 2024)

Tested on: Lenti-X 293T cells
Experiment: YFP fluorescence quenching anion reporter plate reader assay of engineered receptors stimulated with acetylcholine or a non-native ligand
Type: cell-based
Outline: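 YFP quench was followed for about 1 min 43 s after ligand delivered in iodide-based ECS, pH 7.2. Values are end-of-read fluorescence (last 10 s) divided by the pre-ligand baseline (15 s). Cells were LX293T, transfected with receptor DNA a day before the assay.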

B1: CODA1173: engineered chimeric LGIC receptor, S172D, Y210W in SEQ ID NO: 33 (protein)
chain: MRCSPGGVWLALAASLLHVSLQGEFQRKLYKELVKNYNPLERPVANDSQPLTVYFSLSLLQIMDVDEKNQVLTTNIWLQMSWTDHYLQWNVSEYPGVKTVRFPDGQIWKPDILLYNSADERFDATFHTNVLVNSSGHCQYLPPGIFKSSCPMDLKNFPMDVQTCKLKFGSWDYGGWSLDLQMQEADISGYIPNGEWDLVGIPGKRSERFWECCKEPYPDVTFTVTMRRRMGYYLIQMYIPSLLIVILSWISFWINMDAAPARVGLGITTVLTMTTQSSGSRASLPKVSYVKAIDIWMAVCLLFVFSALLEYAAVNFVSRQHKELLRFRRKRRHHKSPMLNLFQEDEAGEGRFNFSAYGMGPACLQAKDGISVKGANNSNTTNPPPAPSKSPEEMRKLFIQRAKKIDKISRIGFPMAFLIFNMFYWIIYKIVRREDVHNQ
modifications: synthetic sequence of chimeric LGIC
With B1 the “YFP fluorescence quenching using CNL001” value (1 nM CNL001, first column) was 16.321%, the “YFP fluorescence quenching using CNL001” value (1 nM CNL001, second column) was 30.264% and the “YFP fluorescence quenching using Varenicline” value (3 nM var, first column) was 9.211. For the same molecule, the “YFP fluorescence quenching using Varenicline” value (3 nM var, second column) was 7.193, the “YFP fluorescence quenching using CNL001” value (10 nM CNL001, first column) was 61.978% and the “YFP fluorescence quenching using CNL001” value (10 nM CNL001, second column) was 65.343%. For the same molecule, the “YFP fluorescence quenching using Varenicline” value (30 nM var, first column) was 7.821, the “YFP fluorescence quenching using Varenicline” value (30 nM var, second column) was 9.078 and the “YFP fluorescence quenching using CNL001” value (50 nM CNL001, first column) was 73.006%. For the same molecule, the “YFP fluorescence quenching using CNL001” value (50 nM CNL001, second column) was 74.903%, the “YFP fluorescence quenching using ABT-126” value (50 nM abt) was 5.15% and the “YFP fluorescence quenching using CNL001” value (100 nM CNL001, first column) was 76%. For the same molecule, the “YFP fluorescence quenching using CNL001” value (100 nM CNL001, second column) was 76.759%, the “YFP fluorescence quenching using CNL002” value (100 nM CNL002) was 70.15% and the “YFP fluorescence quenching using ABT-126” value (100 nM abt) was 25.08%. For the same molecule, the “YFP fluorescence quenching using ABT-126” value (300 nM abt) was 66.86%, the “YFP fluorescence quenching using Varenicline” value (300 nM var, first column) was 6.933 and the “YFP fluorescence quenching using Varenicline” value (300 nM var, second column) was 8.36. For the same molecule, the “YFP fluorescence quenching using Varenicline” value (500 nM var, first column) was 5.501, the “YFP fluorescence quenching using Varenicline” value (500 nM var, second column) was 7.04 and the “YFP fluorescence quenching using CNL001” value (1 uM CNL001, first column) was 76.928%. The “YFP fluorescence quenching using CNL001” value (1 uM CNL001, second column) was 76.619%, the “YFP fluorescence quenching using CNL002” value (1 uM CNL002) was 77.33% and the “YFP fluorescence quenching using ABT-126” value (1 uM abt) was 66.94%. For the same molecule, the “YFP fluorescence quenching using Varenicline” value (1 uM var, first column) was 7.174, the “YFP fluorescence quenching using Varenicline” value (1 uM var, second column) was 5.185 and the “YFP fluorescence quenching using ABT-126” value (10 uM abt) was 78.67%. For the same molecule, the “percent quench of YFP fluorescence, 1 mM ach” value (acetylcholine 1 mM) was −6.12% and the “percent quench of YFP fluorescence, 3 mM ach” value (acetylcholine 3 mM) was 11.31%.
